Data taken from patent US12303551B2, “Cellular immunotherapy compositions and uses thereof” (CERO THERPEUTICS HOLDINGS, INC., priority 2018, dated 2025).

What follows are molecules tested on SCC152 cells (assay: Elimination of GFP-expressing SCC152 target cells over time (quantification and time lapse imaging)). Details: 96-well co-culture, CD8+/E7 TCR + CD4+/CER + SCC152 1:1:1, compared to control.
Assay type: cell-based
Protocol: Target SCC152 cells were co-cultured with CD8+ T cells transduced with HPV E7 TCR+CD4+ T cells transduced with a selected CER, or controls (CD8+ T cell transduced with HPV E7 TCR+CD4+ transduced control) at a 1:1:1 ratio. The number of target cells were quantified using imaging software. 0 hours, 24 hours, and 48 hours are shown from left to right.
(§1) FIG. 21 is time lapse imaging from 96-well co-culture experiments comprising CD8+ T cells transduced with HPV16 E7 TCR+CD4+ T cells transduced with CER5, CER17 or CER19 incubated with SCC152 target cells at a 1:1:1 ratio. SCC152 HPV+ target cells were quantified using automated cell counting software.
as §1, with “22” for “21”, “CER21, CER23” for “CER5, CER17”, “CER26” for “CER19”
as §1, with “23” for “21”, “CER103b, CER104” for “CER5, CER17”, “CER105” for “CER19”
as §1, with “24” for “21”, “CER106, CER116” for “CER5, CER17”, “CER27” for “CER19”
FIG. 57 is a bar graph showing quantification of loss of SCC152 HPV16+ target cells over time during co-culture assays. SCC152 cells were transduced with green fluorescent protein (GFP) and co-cultured with CD8+ T cells transduced with HPV16 E7 TCR and CD4+ T cells transduced with a selected CER (CER29, CER30, CER110, CER112, CER113, CER114, CER116, or CER117) or a CD4+ T cell control at a 1:1:1 ratio (CD8:CD4:target cell). The number of target cells was quantified at various time points during co-culture (0 hrs, 12 hrs, 24 hrs, and 36 hrs) using fluorescence microscopy and imaging software.
(§2) FIG. 58 are fluorescence micrograph images of the co-culture assay described in FIG. 57, showing clearance of the SCC152 cells (pink) as co-culture with CD8+ T cells transduced with HPV16 E7 TCR and CD4+ T cells transduced with a selected CER (columns from left to right: control, CER29, CER30, CER110, or CER112) progresses (rows from top to bottom: 0 hrs, 12 hrs, 24 hrs, and 36 hrs).
as §2, with “59” for “58”, “CER113, CER114, CER116,” for “CER29, CER30, CER110,”, “CER117)” for “CER112)”
(§3) Elimination of target SCC152 cells was also detected by quantifying green fluorescent protein expression by SCC152 cells over time (0 hr, 24 hr, 48 hr) during co-incubation with CD8+ T cells transduced with HPV16 E7 specific TCR+ CD4 T cells transduced with selected CER (see, FIG. 20).
as §3, with “hr, 12 hr,” for “hr,”, “hr, 36” for “hr, 48”, “TCR+ CD4+” for “TCR+ CD4”, “CER (CER29, CER30, CER110, CER112, CER113, CER114, CER116, or CER117)” for “CER”, “FIG. 57).” for “FIG. 20).”

Row | Molecule | number of SCC152 cells in time lapse imaging
1 | CER19: Chimeric engulfment receptor: Tim4 binding, Tim4 transmembrane, TLR5 signaling; SEQ ID NO: 95 (protein, CER19, amino acids 1-22 are signal peptide) MSKGLLLLWLVTELWWLYLTPAASEDTIIGFLGQPVTLPCHYLSWSQSRNSMCWGKGSCPNSKCNAELLRTDGTRIISRKSTKYTLLGKVQFGEVSLTISNTNRGDSGVYCCRIEVPGWFNDVKKNVRLELRRATTTKKPTTTTRPTTTPYVTTTTPELLPTTVMTTSVLPTTTPPQTLATTAFSTAVTTCPSTTPGSFSQETTKGSAFTTESETLPASNHSQRSMMTISTDIAVLRPTGSNPGILPSTSQLTTQKTTLTTSESLQKTTKSHQINSRQTILIIACCVGFVLMVLLFLAFLTKFRGFCFICYKTAQRLVFKDHPQGTEPDMYKYDAYLCFSSKDFTWVQNALLKHLDTQYSDQNRFNLCFEERDFVPGENRIANIQDAIWNSRKIVCLVSRHFLRDGWCLEAFSYAQGRCLSDLNSALIMVVVGSLSQYQLMKHQSIRGFVQKQQYLRWPEDFQDVGWFLHKLSQQILKKEKEKKKDNNIPLQTVATIS | decreasing in numbers over time
2 | CER17: Chimeric engulfment receptor: Tim4 binding, Tim4 transmembrane, TLR3 signaling; SEQ ID NO: 112 (protein, CER17, amino acids 1-22 are signal peptide) MSKGLLLLWLVTELWWLYLTPAASEDTIIGFLGQPVTLPCHYLSWSQSRNSMCWGKGSCPNSKCNAELLRTDGTRIISRKSTKYTLLGKVQFGEVSLTISNTNRGDSGVYCCRIEVPGWFNDVKKNVRLELRRATTTKKPTTTTRPTTTPYVTTTTPELLPTTVMTTSVLPTTTPPQTLATTAFSTAVTTCPSTTPGSFSQETTKGSAFTTESETLPASNHSQRSMMTISTDIAVLRPTGSNPGILPSTSQLTTQKTTLTTSESLQKTTKSHQINSRQTILIIACCVGFVLMVLLFLAFLEGWRISFYWNVSVHRVLGFKEIDRQTEQFEYAAYIIHAYKDKDWVWEHFSSMEKEDQSLKFCLEERDFEAGVFELEAIVNSIKRSRKIIFVITHHLLKDPLCKRFKVHHAVQQAIEQNLDSIILVFLEEIPDYKLNHALCLRRGMFKSHCILNWPVQKERIGAFRHKLQVALGSKNSVH | decreasing in numbers over time
3 | CER21: Chimeric engulfment receptor: Tim4 binding, Tim4 transmembrane, TLR8 signaling; SEQ ID NO: 96 (protein, CER21, amino acids 1-22 are signal peptide) MSKGLLLLWLVTELWWLYLTPAASEDTIIGFLGQPVTLPCHYLSWSQSRNSMCWGKGSCPNSKCNAELLRTDGTRIISRKSTKYTLLGKVQFGEVSLTISNTNRGDSGVYCCRIEVPGWFNDVKKNVRLELRRATTTKKPTTTTRPTTTPYVTTTTPELLPTTVMTTSVLPTTTPPQTLATTAFSTAVTTCPSTTPGSFSQETTKGSAFTTESETLPASNHSQRSMMTISTDIAVLRPTGSNPGILPSTSQLTTQKTTLTTSESLQKTTKSHQINSRQTILIIACCVGFVLMVLLFLAFLHHLFYWDVWFIYNVCLAKVKGYRSLSTSQTFYDAYISYDTKDASVTDWVINELRYHLEESRDKNVLLCLEERDWDPGLAIIDNLMQSINQSKKTVFVLTKKYAKSWNFKTAFYLALQRLMDENMDVIIFILLEPVLQHSQYLRLRQRICKSSILQWPDNPKAEGLFWQTLRNVVLTENDSRYNNMYVDSIKQY | decreasing in numbers over time
4 | CER23: Chimeric engulfment receptor: Tim4 binding, Tim4 transmembrane, TLR9 signaling; SEQ ID NO: 116 (protein, CER23, amino acids 1-22 are signal peptide) MSKGLLLLWLVTELWWLYLTPAASEDTIIGFLGQPVTLPCHYLSWSQSRNSMCWGKGSCPNSKCNAELLRTDGTRIISRKSTKYTLLGKVQFGEVSLTISNTNRGDSGVYCCRIEVPGWFNDVKKNVRLELRRATTTKKPTTTTRPTTTPYVTTTTPELLPTTVMTTSVLPTTTPPQTLATTAFSTAVTTCPSTTPGSFSQETTKGSAFTTESETLPASNHSQRSMMTISTDIAVLRPTGSNPGILPSTSQLTTQKTTLTTSESLQKTTKSHQINSRQTILIIACCVGFVLMVLLFLAFLGWDLWYCFHLCLAWLPWRGRQSGRDEDALPYDAFVVFDKTQSAVADWVYNELRGQLEECRGRWALRLCLEERDWLPGKTLFENLWASVYGSRKTLFVLAHTDRVSGLLRASFLLAQQRLLEDRKDVVVLVILSPDGRRSRYVRLRQRLCRQSVLLWPHQPSGQRSFWAQLGMALTRDNHHFYNRNFCQGPTAE | decreasing in numbers over time
5 | CER5: Chimeric engulfment receptor: Tim4 binding, Tim4 transmembrane, TLR4 signaling; SEQ ID NO: 94 (protein, CER5, amino acids 1-22 are signal peptide) MSKGLLLLWLVTELWWLYLTPAASEDTIIGFLGQPVTLPCHYLSWSQSRNSMCWGKGSCPNSKCNAELLRTDGTRIISRKSTKYTLLGKVQFGEVSLTISNTNRGDSGVYCCRIEVPGWFNDVKKNVRLELRRATTTKKPTTTTRPTTTPYVTTTTPELLPTTVMTTSVLPTTTPPQTLATTAFSTAVTTCPSTTPGSFSQETTKGSAFTTESETLPASNHSQRSMMTISTDIAVLRPTGSNPGILPSTSQLTTQKTTLTTSESLQKTTKSHQINSRQTILIIACCVGFVLMVLLFLAFLKFYFHLMLLAGCIKYGRGENIYDAFVIYSSQDEDWVRNELVKNLEEGVPPFQLCLHYRDFIPGVAIAANIIHEGFHKSRKVIVVVSQHFIQSRWCIFEYEIAQTWQFLSSRAGIIFIVLQKVEKTLLRQQVELYRLLSRNTYLEWEDSVLGRHIFWRRLRKALLDGKSWNPEGTVGTGCNWQEATSI | decreasing in numbers over time
6 | CER26: Chimeric engulfment receptor: Tim4 binding, Tim4 transmembrane, TLR1 signaling; SEQ ID NO: 118 (protein, CER26, amino acids 1-22 are signal peptide) MSKGLLLLWLVTELWWLYLTPAASEDTIIGFLGQPVTLPCHYLSWSQSRNSMCWGKGSCPNSKCNAELLRTDGTRIISRKSTKYTLLGKVQFGEVSLTISNTNRGDSGVYCCRIEVPGWFNDVKKNVRLELRRATTTKKPTTTTRPTTTPYVTTTTPELLPTTVMTTSVLPTTTPPQTLATTAFSTAVTTCPSTTPGSFSQETTKGSAFTTESETLPASNHSQRSMMTISTDIAVLRPTGSNPGILPSTSQLTTQKTTLTTSESLQKTTKSHQINSRQTILIIACCVGFVLMVLLFLAFLSYLDLPWYLRMVCQWTQTRRRARNIPLEELQRNLQFHAFISYSGHDSFWVKNELLPNLEKEGMQICLHERNFVPGKSIVENIITCIEKSYKSIFVLSPNFVQSEWCHYELYFAHHNLFHEGSNSLILILLEPIPQYSIPSSYHKLKSLMARRTYLEWPKEKSKRGLFWANLRAAINIKLTEQAKK | decreasing in numbers over time
